The values that follow come from US20220211037A1, “BIOSENSORS FOR DROUGHT STRESS IN PLANTS” (The Regents of the University of California, priority 2019, published 2022).

Assay [1] addresses 1:1 mixture of PYL3 containing PYL3-Cy5.5 and PYL3-BHQ3 (Arabidopsis thaliana). Briefly: Cy5.5 fluorescence of the PYL3-Cy5.5/PYL3-BHQ3 mixture (quenched in dimers), 1000 µM ABA.
The target is the same in assay [2]. Briefly: Cy5.5 fluorescence of the PYL3-Cy5.5/PYL3-BHQ3 mixture (quenched in dimers), 40 µM ABA.
Assay [3] shares this target. Briefly: static light scattering of the PYL3-Cy5.5/PYL3-BHQ3 mixture, 0.1 µM ABA.
For assay [4] the target is unchanged. The assay can be described thus: calculated from static light scattering of the mixture, 40 µM ABA.
Assay [5] has the same target. Briefly: calculated from static light scattering of the mixture, 0.1 µM ABA.
Assay [6] shares this target. Briefly: static light scattering of the PYL3-Cy5.5/PYL3-BHQ3 mixture, 100 µM ABA.
The target is the same in assay [7]. Briefly: Cy5.5 fluorescence of the PYL3-Cy5.5/PYL3-BHQ3 mixture (quenched in dimers), 1.0 µM ABA.
Assay [8] shares this target. Briefly: calculated from static light scattering of the mixture, 100 µM ABA.
The target is the same in assay [9]. The assay can be described thus: calculated from static light scattering of the mixture, 1.0 µM ABA.
Assay [10] has the same target. Briefly: Cy5.5 fluorescence of the PYL3-Cy5.5/PYL3-BHQ3 mixture (quenched in dimers), 0.1 µM ABA.
Assay [11] shares this target. The assay can be described thus: static light scattering of the PYL3-Cy5.5/PYL3-BHQ3 mixture, 40 µM ABA.
For assay [12] the target is unchanged. Briefly: Cy5.5 fluorescence of the PYL3-Cy5.5/PYL3-BHQ3 mixture (quenched in dimers), 100 µM ABA.
Assay [13] has the same target. Briefly: static light scattering of the PYL3-Cy5.5/PYL3-BHQ3 mixture, 1000 µM ABA.
Assay [14] has the same target. The assay can be described thus: static light scattering of the PYL3-Cy5.5/PYL3-BHQ3 mixture, 1.0 µM ABA.
Assay [15] has the same target. Briefly: calculated from static light scattering of the mixture, 1000 µM ABA.

Turning to “1:1 mixture of PYL3 containing PYL3-Cy5.5 and PYL3-BHQ3”, the Fluorescence (measured) came to 9490 cps in assay [1]; 5300 cps in assay [2]; 4290 cps in assay [7]; 3960 cps in assay [10]; 6710 cps in assay [12]. Besides, the Average molar mass (measured, amu) in [3] worked out at 51100 amu; in assay [6] it was 34000 amu; in [11], 43300 amu; in assay [13] it was 31100 amu; in assay [14] it was 47400 amu. Also, the PYLs in dimers (hetero- and homodimers, %) in assay [4] is 68%; in assay [5] it was 98%; in assay [8] it was 32%; in assay [9] it was 84%; in assay [15], 20%. In addition, the PYLs in monomers (%) in assay [4] was 32%; in assay [5] it was 2%; in assay [8], 68%; in assay [9], 16%; in assay [15] it was 80%.
